Experimental data published in US20060171955A1.

Assays:
monoclonal antibody 1129 [1] = assay: competitive ELISA; soluble 248/404 F inhibits 1129 binding to plate-adsorbed A2 F
monoclonal antibody 1129 [2] = assay: competitive ELISA; soluble 248/404 F inhibits 1129 binding to plate-adsorbed 248/404 F
monoclonal antibody 1129 [3] = assay: competitive ELISA; soluble A2 F inhibits 1129 binding to plate-adsorbed A2 F
monoclonal antibody 1129 [4] = assay: competitive ELISA; soluble A2 F inhibits 1129 binding to plate-adsorbed 248/404 F

Substance	Percent Inhibition (monoclonal antibody 1129 [1])	Percent Inhibition (monoclonal antibody 1129 [2])	Percent Inhibition (monoclonal antibody 1129 [3])	Percent Inhibition (monoclonal antibody 1129 [4])
purified RSV fusion (F) protein from the cold-passaged, temperature-sensitive mutant A2 strain cpts-248/404 (PFP-3) (from UniProt P03420 26-574)	94.7%	95.9%		
purified RSV fusion (F) protein from the parent A2 strain (PFP-2) (from UniProt P03420 26-574)			> 99%	> 99%
